Results published in the supplement of paper PMC10126150.
± gives the standard deviation of the averaged measurements.

The sequences below were run on ATP (assay: switch fluorescence ratio, 500 uM ATP over buffer (Cy3 cluster intensity, sum of 5 cycles each) (fold (ratio)); higher = stronger signal-on switching upon ATP binding; sequences stand for … in TCGTCGGCAGCGTCAGATGTGTATAAGAGACAGTTTTTTTTTTTTTTTTTTTTTTTTT…TC). Details: aptamer strand: ATP DNA aptamer (quencher-CACCTGGGGGAGTATTGCGGAGGAAGG + anchor), 100 nM annealed; ATP concentration: 500 uM.
Summary of the method: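 Clusters carrying Cy3-labelled switching strands on a modified Illumina MiSeq flow-cell were annealed to 100 nM quencher-labelled ATP aptamer and imaged in selection buffer. They were imaged again after 15 min with 500 uM ATP at 22 °C, over five buffer/ATP cycles with NaOH stripping and re-annealing in between. For each cluster, the fluorescence ratio is the summed Cy3 intensity of the target cycles divided by that of the buffer cycles, averaged per switch-domain sequence. Clusters outside 100-1000 RFU were left out.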
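Note: ATP exposure 15 min at 22 °C before imaging.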

In order of rising switch fluorescence ratio:
1. GCTAGTGCTT  0.956 ± 0.011
2. GCGTCGATTA  0.96 ± 0.015
3. GCGGGCTGAA  0.962 ± 0.014
4. GCGTAACAGT  0.964 ± 0.045
5. GCGTATAGGG  0.964 ± 0.033
6. GCGTTAAGGG  0.964 ± 0.053
7. GCGTAGGGG  0.967 ± 0.028
8. GCTAGATCGT  0.969 ± 0.033
9. GCGGGGTCCG  0.97126 ± 0.00059
10. GCGGTGAGGC  0.9709 ± 0.0056
11. GCGTTCCTTA  0.971 ± 0.024
12. GCTAGGCTGG  0.97301 ± 0.0002
13. GCGGCGGCAG  0.9761 ± 0.0088
14. GCGGTAGCAG  0.979 ± 0.024
15. GCTAGGAACT  0.979 ± 0.019
16. GCTATATGTG  0.98 ± 0.069
17. GCGGGCGGCC  0.9812 ± 0.0082
18. GCGTTGCCAG  0.9816 ± 0.0081
19. GCTAGTAAGT  0.9819 ± 0.0063
20. GCGGTGAGAA  0.983 ± 0.028
21. GCGTCTAGGA  0.9839 ± 0.0033
22. GCGTTAAGTT  0.984 ± 0.035
23. GCTAACAGAG  0.984 ± 0.035
24. GCTATTAGGA  0.984 ± 0.033
25. GCGTGAGCGA  0.985 ± 0.042
26. GCTAGTGGC  0.985 ± 0.079
27. GCGGTGGGTT  0.9862 ± 0.0096
28. GCTAGGAGTA  0.987 ± 0.0091
29. GCGGTGCGGG  0.9878 ± 0.0042
30. GCGTTTTTTT  0.98972 ± 0.0007
31. GCGGGGTATG  0.9908 ± 0.008
32. GCGGTTGGAA  0.9927 ± 0.0034
33. GCTATATTGG  0.9933 ± 0.0091
34. GCGGGATATG  0.994 ± 0.019
35. GCGGGGGTTA  0.994 ± 0.018
36. GCGTTCAGGC  0.994 ± 0.063
37. GCGGTCGGGC  0.9952 ± 0.0076
38. GCGTGATTTG  0.9959 ± 0.0045
39. GCGTTTTTGG  0.998 ± 0.029
40. GCGGGAATGA  1 ± 0.045
41. GCGGGGCAGC  1.001 ± 0.0068
42. GCGGGGGCGT  1 ± 0.03
43. GCGGTGATGG  1 ± 0.035
44. GCGTCTATGA  1 ± 0.016
45. GCGTGGAGA  1 ± 0.03
46. GCGTTAAGTA  1.005 ± 0.0085
47. GCGTTTCGGA  1 ± 0.02
48. GCGGGGGAG  1.01 ± 0.059
49. GCGGGGGGGA  1.01 ± 0.038
50. GCGTATAGGA  1.01 ± 0.035
51. GCGTATTTTT  1.01 ± 0.029
52. GCGTGGGGGT  1.01 ± 0.012
53. GCGTTAGGCG  1.01 ± 0.044
54. GCGTTATAAG  1.01 ± 0.049
55. GCTAACGGAG  1.0112 ± 0.00048
56. GCTAGGCCTC  1.01 ± 0.038
57. GCTAGGGCTT  1.01 ± 0.062
58. GCTATTGGGA  1.01 ± 0.022
59. GCTATTTGTA  1.01 ± 0.023
60. GCTCAATCTA  1.01 ± 0.006
61. GCGGCCTGGG  1.02 ± 0.049
62. GCGGGGGAAA  1.02 ± 0.09
63. GCGGGGGGAT  1.02 ± 0.017
64. GCGTATTGAG  1.02 ± 0.022
65. GCTACTGGCC  1.02 ± 0.039
66. GCTCATTTCG  1.02 ± 0.042
67. GCGGGGTTTC  1.03 ± 0.059
68. GCGGTGTTTT  1.03 ± 0.05
69. GCGTTTGCAT  1.03 ± 0.034
70. GCTAGTTTCG  1.03 ± 0.019
71. GCTATGGTGC  1.026 ± 0.0038
72. GCGGGAGATG  1.04 ± 0.018
73. GCGGGTAGCA  1.04 ± 0.029
74. GCTAATTGGC  1.04 ± 0.098
75. GCTACCGTTT  1.04 ± 0.041
76. GCGGGAAGCT  1.05 ± 0.044
77. GCGGGTTACT  1.053 ± 0.0028
78. GCGGTTCCTC  1.05 ± 0.027
79. GCTACGACGG  1.05 ± 0.012
80. GCTAACCCTT  1.06 ± 0.0036
81. GCTACTTTGG  1.06 ± 0.048
82. GCTCAAGCCT  1.06 ± 0.028
83. GCGTACCAAT  1.067 ± 0.0033
84. GCTCCAATTT  1.07 ± 0.034
85. GCGGGATGGG  1.08 ± 0.07
86. GCGTCAATTA  1.08 ± 0.03
87. GCGTTAACTC  1.08 ± 0.026
88. GCGTTTCCTC  1.08 ± 0.033
89. GCGTAAGTGC  1.092 ± 0.006
90. GCTAAATTCC  1.11 ± 0.027
91. GCGGGAGTCC  1.13 ± 0.2
92. GCGGTAGTAC  1.14 ± 0.013
93. GCGGGGGTTT  1.15 ± 0.28
94. GCGGGGCCAC  1.2 ± 0.26
95. GCGGTTTTTT  1.22 ± 0.35
96. GCTCCGGCGG  1.24 ± 0.045
97. GCTATTATAC  1.47 ± 0.0019
98. GCTAAAACCT  2.25 ± 0.23
99. GCGGCCTTAC  2.42 ± 0.4
100. GCTCCAATAA  2.49 ± 0.047
